Results from paper PMC9549385.

Target: human delta-opioid receptor (human) (UniProt P41143)

## [D-Ala2, D-Leu5]-enkephalin (peptide)
  Emax of ERK1/2 phosphorylation (% of SNC80 maximum, In-Cell Western) in CHO-K1-hDOPr cells, 5 min stimulation: 36 % SNC80
